Source: PMC2984483

Key:
Conditions in all cases: EMSA: 0.1 ng 32P probe, 15 ul, 30 min at 25 C (stated for GadE/RcsBD56E), 6% native PAGE; H-NS: 100-200 ng PCR fragment plus pBR322 digest, 15 min room …
[1] = biological target: T1, H-NS-His6 (Escherichia coli) (UniProt P0ACF8); assay: competitive EMSA
T1 sequence: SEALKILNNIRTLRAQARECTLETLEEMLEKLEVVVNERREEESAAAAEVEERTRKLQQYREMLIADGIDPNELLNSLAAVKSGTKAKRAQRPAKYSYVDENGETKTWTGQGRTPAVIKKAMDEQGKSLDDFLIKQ

[2] = biological target: T2, Strep-AdiY (Escherichia coli) (UniProt P33234); assay: EMSA
T2 sequence: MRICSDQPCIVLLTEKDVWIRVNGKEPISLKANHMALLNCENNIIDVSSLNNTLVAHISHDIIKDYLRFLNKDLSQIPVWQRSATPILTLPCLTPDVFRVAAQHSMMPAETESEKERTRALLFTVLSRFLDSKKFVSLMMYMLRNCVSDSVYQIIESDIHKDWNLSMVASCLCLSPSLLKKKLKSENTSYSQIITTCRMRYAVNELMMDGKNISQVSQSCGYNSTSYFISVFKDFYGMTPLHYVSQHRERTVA

[3] = biological target: T3, HdfR-His6 (Escherichia coli) (UniProt P0A8R9); assay: EMSA
T3 sequence: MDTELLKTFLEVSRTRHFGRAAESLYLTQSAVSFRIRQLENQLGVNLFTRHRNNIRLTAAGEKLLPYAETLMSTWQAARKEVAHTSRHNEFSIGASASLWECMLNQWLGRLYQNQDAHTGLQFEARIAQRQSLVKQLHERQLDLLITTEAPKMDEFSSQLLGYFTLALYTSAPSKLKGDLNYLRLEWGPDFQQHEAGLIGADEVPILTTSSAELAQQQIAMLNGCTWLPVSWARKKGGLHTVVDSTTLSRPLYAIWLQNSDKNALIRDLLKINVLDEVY

[4] = biological target: T4, His6-RcsBD56E;GadE-His6 D56E (Escherichia coli;Escherichia coli) (UniProt P0DMC7+P63204); assay: EMSA
T4 sequence 1: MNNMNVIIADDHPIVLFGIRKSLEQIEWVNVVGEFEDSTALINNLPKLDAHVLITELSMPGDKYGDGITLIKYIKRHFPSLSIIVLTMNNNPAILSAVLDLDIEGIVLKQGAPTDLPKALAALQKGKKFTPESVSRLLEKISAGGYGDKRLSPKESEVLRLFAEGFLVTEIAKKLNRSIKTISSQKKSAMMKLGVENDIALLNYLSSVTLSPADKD
T4 sequence 2: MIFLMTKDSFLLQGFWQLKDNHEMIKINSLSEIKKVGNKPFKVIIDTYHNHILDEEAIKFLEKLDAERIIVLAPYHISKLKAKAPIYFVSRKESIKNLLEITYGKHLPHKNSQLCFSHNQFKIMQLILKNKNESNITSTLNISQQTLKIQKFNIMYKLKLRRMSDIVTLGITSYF

Sequence	binding [1]	binding [2]	binding [3]	binding [4]
TCGTTATGCAGCGATATTTTTTGCTGTTCATGATAAATATCGAATGAACGACGAATGAGGATCACCGAGCAGACATGAGTCATGATTATCCCTTATATTTCATACTGCGATTATTTCAATTTCAGTATACTAATGAAATGATGCCAGACTGTTTCTTAGCGCAAAAACTGCCAGATTTGGTAGGACCAAAATTTATCCACAAAGTAGTTTTGCATAACAGTTAATTGATAATAAGTAAATGCAGCACGAATATATTTTCGCACAGCGTATAGCTTA (double strand) [gadW promoter]	binds	–	–	–
ATGCCAAAAACGCGTCTAAGAATGCAGTCGATTTAATAAAAATTTCCTAATTGCAGTATCTGATGCATCTGTAACTCATTGTATTGAAATAAAAATATCTGATTTTGATATTTTCCATCAACATGACATATACAGAAAACCAGGTTATAACCTCAGTGTCG (double strand) [hdeABD promoter]	–	no binding	–	–
TTGCTCATGCAAAGACTAACAATCCATTAAAATAGTAAGTGCTCCGGACAATTTTCCATGGATTATTTTCTGAACATTTTTCTTTGGCAAAGATGATGAATTTTGATGGTAAGGAATATTACTTCTGGTTCTCAGTAAAATCCTTTCGTAATACTATGTAATCAAGAAGTTTATGGCTGGTAAAAATAACGTCTTGCATTCACCAATAATATGTAAATAAACCCATCTATAGATGGTAAAAATAGGTTGTGGCAATTATCATTGCATCATTCCCTTTTCGAATG (double strand) [cadC promoter]	binds	–	–	–
CGCATAATTTCCAGCAATCTTTGTTTATTTGCAATTATTTTTGTTGGGCTTTTTGTAGGTTATTTGTACAGCAAAATGGCGCTTGTACATCTATTTCCCCCAATGCAGGATGATAAATATCACGGGAGAATAGAGAATCATCAATCAGGTAAGAGTCTGGAATTTCACACTGTACCCTTTATACTGCCCT (double strand) [rcsD promoter]	binds	–	–	–
GGTCGCTCCTTGCCTGAAGTCATCCTTCAATACGTTAAGGGCGAAATCATACCGTGGGGCAATGAGTTATTACGGGCGTTTATTGCGAAGGGAGGGTGACGAAATGCACAGAAAACAAAA (double strand) [aslB promoter]	–	no binding	no binding	binds
TTATATATCCATGTTGGCGATAATCCCTTTGTATGTACTGTGCATCATCGCTATTACAAATCCTAATAATTCATTTCCACACAGGATAAGTAGATGAAGAAAAAAATTGAATC (double strand) [ydeP promoter]	binds	–	–	–
GAATAAAAATAGATTTTATGTACTTTTAAAACAATGCACTATATTATGGGGTGATGGATATTCATGTCACGCCCCAAAATTAACTGAGTTCACCTAAACAGAAAGGATATAAACATCAGACAGGTTTACGTTACTATCAGGCATATCACCTCAGAATCAGATGAAAACTATAAAGAAATATCTATTATGGTTTTAA (double strand) [slp-dctR promoter]	binds	no binding	–	–
AATGATACTTGTCTGAAAAACAGATTTACGACGATATAAAATAATAATACTTATATGTTCGCTGATTTTAAGCACCGAGACTATCCGGTCTTTTACCAAATAATGAAGAATAATCCCTCCCTGGAAGATAATTGTAAAAAACAACAGCATAAGAATTAATCTTAGGATAAATTTTTATTTATCATGGCCTTTTGAACGCTGAAAAGTAGCGCTCTGCAAAGTAAACCCCGCTATAGTTATGCTATGCATTTGTCTTTAATGATATCTCGTCATTATATTAACAGGATGAAATTATCATTA (double strand) [yhiM promoter]	binds	–	–	binds
ATCCTGCACGCTCCTAATTCTTTGACCGAGCTAGTTATGGCGCGGAGTATTAGTTACGCTTGACAGAGTGTAAAACAAAACATTTAAATCATAACGACAAATAATTTTGCGGAGAGCACTGTGGATACGGAATTGTTAAAAACTTTCCTGGAAGTTAGCCGAACGCGTCACTTTGGTCGAGCGGCTGAATCGCTCTATCTGACCCAGTCAGCAGTGAGCTTTCGAATCAGACAACTGGAAAATCAACTGGGTGTGAACCTT (double strand) [hdfR promoter]	binds	–	–	–
TGGCCTTAGGCCTTTTGAGTATGGCAACGTTTTCATAAAAATTGCTGCAAACAAAAATGTCATACTTTTTGCGCGGCCCCACCCCGCGCTTTTTTTTGCCTGTTATTTATCCTGTAAAAAAATATGTACATGAGAAATTACTATAAAAATTTGTACTATTAGTAAAAC (double strand) [adiY promoter]	binds	–	–	–
